Measurements published in publication PMC9482650, “Quantitative fragmentomics allow affinity mapping of interactomes” (Nature Communications, 2022).
Each block holds one binder with its values, some of them ahead of it.

Key:
Experiment in all cases: holdup assay
Design in all cases: key: below the threshold = too weak to quantify, mostly under pKd 3.1 to 4
[1] = biological target: LAP2, Q96RT1; details: plain residues with an end cap or a label only (N-terminal biotin on a linker: ado-ado)
[2] = biological target: T1, LIN7C, Q9NUP9; details: plain residues with an end cap or a label only (N-terminal biotin on a linker: ado-ado)
T1 sequence (Q9NUP9 88-185, limits assumed, looked up): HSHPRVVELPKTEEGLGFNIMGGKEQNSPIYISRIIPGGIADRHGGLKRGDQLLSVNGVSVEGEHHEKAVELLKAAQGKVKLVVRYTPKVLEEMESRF

[3] = biological target: DLG2_3, Q15700; details: plain residues with an end cap or a label only (N-terminal biotin on a linker: ado-ado)
[4] = biological target: SCRIB_2, Q14160; details: plain residues with an end cap or a label only (N-terminal biotin on a linker: ado-ado)
[5] = biological target: T2, MPDZ_12, O75970; details: plain residues with an end cap or a label only (N-terminal biotin on a linker: ado-ado)
T2 sequence (O75970 1857-1958, limits assumed, looked up): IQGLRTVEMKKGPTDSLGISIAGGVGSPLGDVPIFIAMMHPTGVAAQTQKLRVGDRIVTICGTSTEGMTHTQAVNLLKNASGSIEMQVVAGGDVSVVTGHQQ

[6] = biological target: T3, LIN7B, Q9HAP6; details: plain residues with an end cap or a label only (N-terminal biotin on a linker: ado-ado)
T3 sequence (Q9HAP6 88-185, limits assumed, looked up): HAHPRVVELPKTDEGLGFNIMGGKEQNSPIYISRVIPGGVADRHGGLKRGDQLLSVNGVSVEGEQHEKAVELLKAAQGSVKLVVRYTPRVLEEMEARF

[7] = biological target: T4, PDZRN3_1, Q9UPQ7; details: plain residues with an end cap or a label only (N-terminal biotin on a linker: ado-ado)
T4 sequence (Q9UPQ7 244-349, limits assumed, looked up): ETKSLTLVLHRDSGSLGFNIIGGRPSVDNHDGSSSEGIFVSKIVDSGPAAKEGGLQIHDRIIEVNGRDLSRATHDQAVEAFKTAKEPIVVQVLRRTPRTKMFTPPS

[8] = biological target: HTRA1, Q92743; details: plain residues with an end cap or a label only (N-terminal biotin on a linker: ado-ado)
[9] = biological target: PDLIM1, O00151; details: plain residues with an end cap or a label only (N-terminal biotin on a linker: ado-ado)
[10] = biological target: DLG2_2, Q15700; details: plain residues with an end cap or a label only (N-terminal biotin on a linker: ahx)
[11] = biological target: ARHGEF12, Q9NZN5-2; details: plain residues with an end cap or a label only (N-terminal biotin on a linker: ahx)
[12] = biological target: T5, SNTB1, Q13884; details: plain residues with an end cap or a label only (N-terminal biotin on a linker: ahx)
T5 sequence (Q13884 107-205, limits assumed, looked up): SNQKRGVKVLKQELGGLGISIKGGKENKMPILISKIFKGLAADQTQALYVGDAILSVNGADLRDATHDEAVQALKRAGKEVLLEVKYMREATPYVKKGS

[13] = biological target: SNX27, Q96L92; details: plain residues with an end cap or a label only (N-terminal biotin on a linker: ahx)
[14] = biological target: T6, SHANK1, Q9Y566; details: plain residues with an end cap or a label only (N-terminal biotin on a linker: ahx)
T6 sequence (Q9Y566 658-767, limits assumed, looked up): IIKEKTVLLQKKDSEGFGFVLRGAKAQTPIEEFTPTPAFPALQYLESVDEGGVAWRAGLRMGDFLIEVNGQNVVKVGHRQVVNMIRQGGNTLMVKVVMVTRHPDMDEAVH

[15] = biological target: T7, DLG3_3, Q92796; details: plain residues with an end cap or a label only (N-terminal biotin on a linker: ahx)
T7 sequence (Q92796 374-475, limits assumed, looked up): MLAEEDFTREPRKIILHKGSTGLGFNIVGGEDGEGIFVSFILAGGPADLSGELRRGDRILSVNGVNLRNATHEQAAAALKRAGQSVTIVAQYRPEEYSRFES

[16] = biological target: PARD3_3, Q8TEW0; details: plain residues with an end cap or a label only (N-terminal biotin on a linker: ahx)
[17] = biological target: T8, SYNJ2BP, P57105; details: plain residues with an end cap or a label only (N-terminal biotin on a linker: ahx)
T8 sequence (P57105 8-110, limits assumed, looked up): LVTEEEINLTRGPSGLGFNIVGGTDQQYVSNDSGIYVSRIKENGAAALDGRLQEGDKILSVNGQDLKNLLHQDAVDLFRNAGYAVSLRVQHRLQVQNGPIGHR

[18] = biological target: T9, SNTA1, Q13424
T9 sequence (Q13424 82-180, limits assumed, looked up): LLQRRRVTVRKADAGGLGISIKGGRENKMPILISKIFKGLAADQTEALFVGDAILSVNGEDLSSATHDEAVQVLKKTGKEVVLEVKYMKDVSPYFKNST

[19] = biological target: MAGI2_4, Q86UL8
[20] = biological target: T10, PARD3B_1, Q8TEW8; details: plain residues with an end cap or a label only (N-terminal biotin on a linker: ado-ado)
T10 sequence (Q8TEW8 196-299, limits assumed, looked up): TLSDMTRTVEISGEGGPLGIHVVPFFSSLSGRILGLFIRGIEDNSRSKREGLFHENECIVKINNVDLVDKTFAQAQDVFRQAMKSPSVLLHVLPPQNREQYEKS

[21] = biological target: PTPN3, P26045; details: plain residues with an end cap or a label only (N-terminal biotin on a linker: ado-ado)
[22] = biological target: Inadl_9, Q8NI35; details: plain residues with an end cap or a label only (N-terminal biotin on a linker: ado-ado)
[23] = biological target: T11, HTRA3, P83110; details: plain residues with an end cap or a label only (N-terminal biotin on a linker: ado-ado)
T11 sequence (P83110 354-453, limits assumed, looked up): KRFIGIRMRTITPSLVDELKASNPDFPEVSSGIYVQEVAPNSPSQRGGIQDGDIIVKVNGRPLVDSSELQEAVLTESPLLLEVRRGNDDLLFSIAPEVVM

[24] = biological target: T12, SNTG2, Q9NY99; details: plain residues with an end cap or a label only (N-terminal biotin on a linker: ado-ado)
T12 sequence (Q9NY99 68-166, limits assumed, looked up): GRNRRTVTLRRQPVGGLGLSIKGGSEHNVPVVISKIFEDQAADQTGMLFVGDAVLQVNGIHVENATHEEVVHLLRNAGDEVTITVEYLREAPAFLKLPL

[25] = biological target: HTRA2, O43464; details: plain residues with an end cap or a label only (N-terminal biotin on a linker: ado-ado)
[26] = biological target: T13, ARHGAP21, Q5T5U3; details: plain residues with an end cap or a label only (N-terminal biotin on a linker: ado-ado)
T13 sequence (Q5T5U3 45-169, limits assumed, looked up): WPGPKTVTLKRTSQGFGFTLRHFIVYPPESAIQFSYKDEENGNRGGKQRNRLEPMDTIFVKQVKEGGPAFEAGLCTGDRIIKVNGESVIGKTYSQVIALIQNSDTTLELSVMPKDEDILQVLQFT

[27] = biological target: Inadl_3, Q8NI35; details: plain residues with an end cap or a label only (N-terminal biotin on a linker: ado-ado)
[28] = biological target: TJP1_2, Q07157; details: plain residues with an end cap or a label only (N-terminal biotin on a linker: ado-ado)
[29] = biological target: IL16_4, Q14005; details: plain residues with an end cap or a label only (N-terminal biotin on a linker: ado-ado)
[30] = biological target: LNX1_2, Q8TBB1; details: plain residues with an end cap or a label only (N-terminal biotin on a linker: ado-ado)
[31] = biological target: T14, PDZD7_3, Q9H5P4; details: plain residues with an end cap or a label only (N-terminal biotin on a linker: ahx)
T14 sequence (Q9H5P4 857-944, limits assumed, looked up): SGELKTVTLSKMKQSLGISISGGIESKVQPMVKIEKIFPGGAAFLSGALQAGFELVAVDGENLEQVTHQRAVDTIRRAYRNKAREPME

[32] = biological target: T15, MPDZ_10, O75970; details: plain residues with an end cap or a label only (N-terminal biotin on a linker: ahx)
T15 sequence (O75970 1624-1722, limits assumed, looked up): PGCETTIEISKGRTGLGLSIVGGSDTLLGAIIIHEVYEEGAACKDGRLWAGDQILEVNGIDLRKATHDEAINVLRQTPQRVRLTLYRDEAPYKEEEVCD

[33] = biological target: TJP2_1, Q9UDY2; details: plain residues with an end cap or a label only (N-terminal biotin on a linker: ado-ado)
[34] = biological target: Inadl_8, Q8NI35; details: plain residues with an end cap or a label only (N-terminal biotin on a linker: ado-ado)
[35] = biological target: T16, RHPN1, Q8TCX5; details: plain residues with an end cap or a label only (N-terminal biotin on a linker: ado-ado)
T16 sequence (Q8TCX5 508-602, limits assumed, looked up): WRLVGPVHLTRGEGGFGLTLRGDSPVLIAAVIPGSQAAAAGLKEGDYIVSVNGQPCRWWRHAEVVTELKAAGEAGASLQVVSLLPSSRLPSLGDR

[36] = biological target: MAGI2_5, Q86UL8; details: plain residues with an end cap or a label only (N-terminal biotin on a linker: ado-ado)
[37] = biological target: MAGI1_2, Q96QZ7; details: plain residues with an end cap or a label only (N-terminal biotin on a linker: ado-ado)
[38] = biological target: DLG4_1, P78352; details: plain residues with an end cap or a label only (N-terminal biotin on a linker: ado-ado)
[39] = biological target: MAGI3_2, Q5TCQ9; details: plain residues with an end cap or a label only (N-terminal biotin on a linker: ado-ado)
[40] = biological target: LNX1_1, Q8TBB1; details: plain residues with an end cap or a label only (N-terminal biotin on a linker: ado-ado)
[41] = biological target: MAGI2_2, Q86UL8; details: plain residues with an end cap or a label only (N-terminal biotin on a linker: ado-ado)
[42] = biological target: T17, DFNB31_1, Q9P202; details: plain residues with an end cap or a label only (N-terminal biotin on a linker: ado-ado)
T17 sequence (Q9P202 135-233, limits assumed, looked up): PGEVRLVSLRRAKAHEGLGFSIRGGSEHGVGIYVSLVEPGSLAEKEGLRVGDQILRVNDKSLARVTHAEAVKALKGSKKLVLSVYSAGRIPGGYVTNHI

[43] = biological target: SCRIB_1, Q14160; details: plain residues with an end cap or a label only (N-terminal biotin on a linker: ado-ado)
[44] = plain residues with an end cap or a label only (N-terminal biotin on a linker: ahx)
[45] = plain residues with an end cap or a label only (N-terminal biotin on a linker: ado-ado)

Sequence of HTRA1, Q92743 (Q92743 360-477): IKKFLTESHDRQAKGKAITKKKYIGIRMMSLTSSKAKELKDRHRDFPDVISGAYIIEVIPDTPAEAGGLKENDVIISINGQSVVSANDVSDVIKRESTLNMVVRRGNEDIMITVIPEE
Sequence of MAGI2_4, Q86UL8 (Q86UL8 772-865): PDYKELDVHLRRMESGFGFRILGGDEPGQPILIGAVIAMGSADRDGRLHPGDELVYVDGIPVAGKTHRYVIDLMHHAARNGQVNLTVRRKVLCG
Sequence of TJP2_1, Q9UDY2 (Q9UDY2 24-128): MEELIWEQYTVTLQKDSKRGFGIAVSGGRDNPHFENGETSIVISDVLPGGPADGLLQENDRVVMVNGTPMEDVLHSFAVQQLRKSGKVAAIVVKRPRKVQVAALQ
Sequence of Inadl_3, Q8NI35 (Q8NI35 359-469): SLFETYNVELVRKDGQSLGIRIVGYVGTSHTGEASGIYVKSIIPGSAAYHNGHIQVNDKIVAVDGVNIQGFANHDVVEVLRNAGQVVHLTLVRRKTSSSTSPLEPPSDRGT
Sequence of HTRA2, O43464 (O43464 355-458): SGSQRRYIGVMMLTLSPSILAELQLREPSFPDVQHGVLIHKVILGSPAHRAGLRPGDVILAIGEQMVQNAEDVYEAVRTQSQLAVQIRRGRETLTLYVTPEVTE
Sequence of Inadl_8, Q8NI35 (Q8NI35 1425-1530): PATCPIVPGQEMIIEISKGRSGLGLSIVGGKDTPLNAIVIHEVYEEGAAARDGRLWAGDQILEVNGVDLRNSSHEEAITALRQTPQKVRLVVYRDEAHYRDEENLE
Sequence of MAGI3_2, Q5TCQ9 (Q5TCQ9 398-503): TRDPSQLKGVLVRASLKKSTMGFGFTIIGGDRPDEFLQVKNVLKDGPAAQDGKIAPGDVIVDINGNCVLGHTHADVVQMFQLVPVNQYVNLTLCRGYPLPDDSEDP
Sequence of PDLIM1, O00151 (O00151 1-87): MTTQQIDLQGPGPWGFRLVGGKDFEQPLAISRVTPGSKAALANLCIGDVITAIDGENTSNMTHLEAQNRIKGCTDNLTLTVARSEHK
Sequence of MAGI1_2, Q96QZ7 (Q96QZ7 456-580): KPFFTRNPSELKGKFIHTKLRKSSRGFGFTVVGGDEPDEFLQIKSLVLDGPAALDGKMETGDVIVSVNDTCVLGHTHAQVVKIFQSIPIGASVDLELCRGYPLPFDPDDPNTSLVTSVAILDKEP
Sequence of MAGI2_5, Q86UL8 (Q86UL8 915-1017): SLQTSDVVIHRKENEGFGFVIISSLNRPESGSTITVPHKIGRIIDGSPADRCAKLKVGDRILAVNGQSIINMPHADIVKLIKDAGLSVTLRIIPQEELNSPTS
Sequence of PTPN3, P26045 (P26045 505-587): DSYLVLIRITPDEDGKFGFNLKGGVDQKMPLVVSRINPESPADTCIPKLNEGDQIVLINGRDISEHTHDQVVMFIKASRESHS
Sequence of SCRIB_1, Q14160 (Q14160 718-814): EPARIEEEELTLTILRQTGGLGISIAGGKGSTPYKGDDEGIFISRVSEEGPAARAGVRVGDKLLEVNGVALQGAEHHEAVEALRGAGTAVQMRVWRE
Sequence of MAGI2_2, Q86UL8 (Q86UL8 410-522): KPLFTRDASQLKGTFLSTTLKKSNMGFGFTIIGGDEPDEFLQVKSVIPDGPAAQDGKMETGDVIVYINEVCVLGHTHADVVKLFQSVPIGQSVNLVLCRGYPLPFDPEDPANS
Sequence of LAP2, Q96RT1 (Q96RT1 other isoform, or with tags, fused parts or gaps): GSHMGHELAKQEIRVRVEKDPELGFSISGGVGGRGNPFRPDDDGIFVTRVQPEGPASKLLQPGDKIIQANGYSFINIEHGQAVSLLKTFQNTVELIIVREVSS
Sequence of LNX1_2, Q8TBB1 (Q8TBB1 371-470): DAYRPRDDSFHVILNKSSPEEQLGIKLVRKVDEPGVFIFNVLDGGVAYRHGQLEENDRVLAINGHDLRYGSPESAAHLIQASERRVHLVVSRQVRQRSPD
Sequence of TJP1_2, Q07157 (Q07157 181-274): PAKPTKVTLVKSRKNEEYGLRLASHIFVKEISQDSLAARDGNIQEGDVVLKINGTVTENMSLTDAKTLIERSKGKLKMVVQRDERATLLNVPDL
Sequence of LNX1_1, Q8TBB1 (Q8TBB1 261-371): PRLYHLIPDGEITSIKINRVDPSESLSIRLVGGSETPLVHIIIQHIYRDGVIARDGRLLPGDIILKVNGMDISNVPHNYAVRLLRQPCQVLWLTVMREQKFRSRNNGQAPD
Sequence of ARHGEF12, Q9NZN5-2 (Q9NZN5 other isoform, or with tags, fused parts or gaps): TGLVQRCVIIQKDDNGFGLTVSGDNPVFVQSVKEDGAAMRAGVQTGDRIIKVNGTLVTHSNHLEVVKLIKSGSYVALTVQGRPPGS
Sequence of PARD3_3, Q8TEW0 (Q8TEW0 582-685): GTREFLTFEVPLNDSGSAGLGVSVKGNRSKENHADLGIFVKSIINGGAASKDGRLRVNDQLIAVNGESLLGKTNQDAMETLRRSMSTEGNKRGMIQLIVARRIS
Sequence of IL16_4, Q14005 (Q14005 1229-1329): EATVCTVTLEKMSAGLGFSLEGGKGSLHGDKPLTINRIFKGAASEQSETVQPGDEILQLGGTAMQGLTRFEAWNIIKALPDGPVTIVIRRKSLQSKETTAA
Sequence of SCRIB_2, Q14160 (Q14160 857-960): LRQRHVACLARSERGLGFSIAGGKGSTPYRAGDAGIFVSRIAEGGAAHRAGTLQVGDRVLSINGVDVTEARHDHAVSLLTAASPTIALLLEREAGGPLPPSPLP
Sequence of Inadl_9, Q8NI35 (Q8NI35 1530-1615): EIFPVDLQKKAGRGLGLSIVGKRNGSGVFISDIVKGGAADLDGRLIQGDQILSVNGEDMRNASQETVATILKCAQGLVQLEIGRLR
Sequence of DLG4_1, P78352 (P78352 62-152): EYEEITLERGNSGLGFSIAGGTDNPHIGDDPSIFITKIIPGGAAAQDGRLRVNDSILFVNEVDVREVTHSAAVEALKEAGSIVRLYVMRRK

- pKd [1]: 3.53
- pKd [2]: 3.8
- pKd [3]: 3.66
- pKd [4]: 3.56
- pKd [5]: 3.55
- pKd [6]: 3.83
- pKd [7]: 3.7
- pKd [8]: 3.62
- pKd [9]: 3.48
B1: ATP2A2, P16615 (peptide)
chain: YLEPVLSSEL

- pKd [10]: 3.71
- pKd [11]: 3.71
- pKd [12]: 3.55
- pKd [13]: 3.61
- pKd [14]: 3.72
- pKd [15]: 3.57
- pKd [16]: 3.56
- pKd [17]: 3.72
- pKd [18, 44]: 3.68
- pKd [19, 44]: 3.83
B2: GRIN1, Q05586 (peptide)
chain: LSDPSVSTVV

- pKd [20]: 3.6
- pKd [21]: 3.87
- pKd [22]: 3.57
- pKd [23]: 3.62
- pKd [24]: 3.48
- pKd [25]: 3.69
- pKd [26]: 3.8
- pKd [27]: 3.54
- pKd [19, 45]: 3.56
- pKd [28]: 3.52
- pKd [29]: 3.83
- pKd [30]: 3.54
B3: PDLIM4_iso2, P50479 (peptide)
chain: VYPNAKVELV

- pKd [31]: 3.48
- pKd [32]: 3.76
B4: PDLIM4, P50479 (peptide)
chain: PSASCAVTAA

- pKd [33]: 3.54
- pKd [34]: 3.52
- pKd [35]: 3.82
- pKd [36]: 3.69
- pKd [37]: 3.8
- pKd [38]: 3.51
- pKd [39]: 3.69
- pKd [40]: 3.72
- pKd [41]: 3.87
- pKd [7]: 3.77
- pKd [8]: 3.73
- pKd [42]: 3.73
- pKd [18, 45]: 3.71
- pKd [43]: 3.82
B5: SLC34A1, Q06495 (peptide)
chain: LPAHHNATRL
